Experiments:
[1] = test system: BM 34−KSL cells; test: Competitive repopulating unit (CRU) assay of 34−KSL cell progeny cultured with TSF or TSF+PTN (Example 2); format: in vivo, mouse
Description: BM 34^−KSL cells were either isolated for injection into recipient animals, or placed into cultures containing TSF alone, TSF+PTN, TSF+HUBECs+goat IgG, or TSF+HUBECs+goat anti-PTN. Recipient C57BL6 animals (CD45. 2^+) received 950 cGy total body irradiation (TBI) and were then injected via tail vein with limiting doses of BM 34^−KSL cells or their progeny following culture. 1×10^5 host BM MNCs were co-injected-into recipient mice as competitor cells. Multilineage hematologic reconstitution was measured in the PB by flow cytometry over time post-transplant as previously described (Reya, et al, Nature 423:409-14 (2003), Salter et al, Blood 113:2104-7 (2009)). Animals were considered to be engrafted if donor CD45. 1^+ cells were present at ≧1% in the PB (Chute et al, Blood 100:4433-9 (2002), Chute et al, Blood 105: 576-83 (2005), (Chute et al, Proc Natl Acad Sci USA 103, 11707-12 (2006)). CRU estimates were performed using L-Calc software (Stem Cell Technologies) as previously described (Reya, et al, Nature 423:409-14 (2003), Chute et al, Blood 109:2365-72 (2007), Chute et al, Proc Natl Acad Sci USA 103, 11707-12 (2006)).
In order to determine if treatment with PTN could induce functional HSC expansion in culture, competitive repopulating unit (CRU) assays were performed using limiting dilutions of donor CD45. 1^+ BM 34^−KSL cells transplanted into lethally irradiated CD45. 2^+ C57Bl6 mice. Peripheral blood (PB) was collected from primary recipient mice at 4 weeks, 12 weeks and 24 weeks to assess the engraftment of donor CD45. 1^+ cells in the PB of recipient mice. […] 1^+ donor cell engraftment in the PB compared to mice transplanted with the identical dose of day 0 34^−KSL cells and mice transplanted with the progeny of 34^−KSL cells cultured with TSF alone (FIG. 6C, P=0.0008 and P=0.001, respectively). […] The PB engraftment of multilineage donor CD45. […] As expected, the CRU frequency within the progeny of 34^−KSL cells following culture with cytokines alone (TSF) was reduced to 1 in 58 cells (95% CI: 1/31 to 1/108). Conversely, the CRU frequency within the progeny of 34^−KSL cells cultured with TSF+PTN was 1 in 10 cells (95% CI: 1/5 to 1/20). Therefore, the addition of PTN induced a 4-fold increase in HSCs compared to input and a 6-fold increase compared to the progeny of TSF alone. […] 1^+ cell reconstitution at all time points through 24 weeks compared to mice transplanted with day 0 34^−KSL cells or their progeny following culture with TSF alone (FIG. 6F). This corresponded to an increased CRU frequency in the PTN-treated progeny compared to input 34^−KSL cells at all time points. […]

[2] = test system: GFI-1; test: qRT-PCR of KSL cells after culture with TSF+PTN; format: cell-based, mouse; conditions: TSF+100 ng/mL PTN x 7 days vs TSF alone
Description: (§1) FIGS. 7A and 7B. […] (FIG. 7B) BM KSL cells were placed in culture with TSF (black bars) or TSF+100 ng/mL PTN (gray bars)×7 days and KSL cells were then isolated via FACS-sorting at day +7 for qRT-PCR analysis and comparison of gene expression. […] All comparisons were one tailed t tests.
(§2) RT-PCR analyses of PTN in ECs and HES-1, GFI-1 and PTEN in BM KSL cells and FACS-sorted KSL cells following culture were performed using a 2-step RTPCR reaction as previously described (Chute et al, Proc Natl Acad Sci USA 103, 11707-12 (2006)). Conditioned medium (CM) was generated from HUBECs and non-brain ECs as previously described (Chute et al, Blood 100:4433-9 (2002), Chute et al, Blood 105: 576-83 (2005)) and ELISA for PTN was performed following manufacturer's guidelines.
(§3) In order to determine a potential mechanism through which PTN mediates HSC expansion, an examination was made as to whether PTN altered pathways that are known to be affected by RPTPβ/ζ (Meng et al, Proc Natl Acad Sci USA 97: 2603-8 (2000), Stoica et al, J Biol Chem 276:16772-9 (2001), Landgraf et al, J Biol Chem 283:25036-45 (2008), Deuel et al, Arch Biochem Biophys 397:162-71 (2002)). Canonical PTN signaling occurs via binding and inactivation of RPTPβ/ζ (Meng et al, Proc Natl Acad Sci USA 97: 2603-8 (2000)), which can facilitate the tyrosine phosphorylation of several intracellular substrates, including Akt and β-catenin (Souttou et al, J Biol Chem 272:19588-93 (1997), Gu et al, FEBS Lett 581:382-8 (2007)). […] BM 34^− KSL cells were treated with TSF with and without 100 ng/mL PTN in the presence and absence of 10 μM wortmannin, a PI 3-kinase inhibitor (Souttou et al, J Biol Chem 272:19588-93 (1997)).

[3] = test system: HES-1; test: qRT-PCR of KSL cells after culture with TSF+PTN; format: cell-based, mouse; conditions: TSF+100 ng/mL PTN x 7 days vs TSF alone
Description: as §1, §2, §3

[4] = test system: PTEN; test: qRT-PCR of KSL cells after culture with TSF+PTN; format: cell-based, mouse; conditions: HSCs following PTN exposure
Description: as §1, §2, §3

B1: PTN: Pleiotrophin, heparin binding growth factor; recombinant human PTN purchased from R&D systems (protein, UniProt P21246 33-168, looked up)
Pleiotrophin: GKKEKPEKKVKKSDCGEWQWSVCVPTSGDCGLGTREGTRTGAECKQTMKTQRCKIPCNWKKQFGAECKYQFQAWGECDLNTALKTRTGSLKRALHNAECQKTVTISKPCGKLTKPKPQAESKKKKKEGKKQEKMLD
increase in HSCs compared to input ([1]; 12 week CRU): 4 fold
increase in HSCs compared to the progeny of TSF alone ([1]; 12 week CRU): 6 fold
increase in CD45.1+ donor cell engraftment in the PB ([1]; 12 weeks post-transplant, vs day 0 34−KSL cells and progeny of TSF alone, 100 ng/mL PTN): > 10 fold
CRU frequency, fold increased compared to input 34−KSL cells ([1]; 24 weeks post-transplant): 4 fold
GFI-1 expression [2]: upregulation
HES-1 expression [3]: upregulation
expression of PTEN [4]: down-modulated

Reference: patent US20150216933A1, “HEMATOPOIETIC STEM CELL GROWTH FACTOR” (DUKE UNIVERSITY, priority 2008, published 2015)
